In paper PMC8307404, “Crystal Structure-Guided Design of Bisubstrate Inhibitors and Photoluminescent Probes for Protein Kinases of the PIM Family” (Molecules, 2021):
Square brackets hold non-standard residues; d marks the D form. Peptide text beside a SMILES is read from it. * marks the point of attachment. X3 = O=C(CCCCCNCc1nc2c(sc3cc(Br)cnc32)c(=O)[nH]1)*

How the values were obtained:
Test in all cases: Kinase profiling (radiometric filter-binding)
Format in all cases: biochemical
CK2 = CK2 (Homo sapiens, UniProt P68400); settings: CK2, 1 µM inhibitor; read-out: Residual activity, %
Procedure, shortened: (§1)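 Activity remaining (% of control without inhibitor) at 1 µM final compound; human kinases, ATP ≤ KM, radiometric filter binding.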

JNK1 = JNK1 (Homo sapiens, UniProt P45983); settings: JNK1, 1 µM inhibitor; read-out: Residual activity, %
Procedure, shortened: as §1

MAP4K3 = target: T1, MAP4K3 (Homo sapiens, UniProt Q8IVH8); settings: MAP4K3, 1 µM inhibitor; read-out: Residual activity, %
T1 sequence (Q8IVH8 1-894): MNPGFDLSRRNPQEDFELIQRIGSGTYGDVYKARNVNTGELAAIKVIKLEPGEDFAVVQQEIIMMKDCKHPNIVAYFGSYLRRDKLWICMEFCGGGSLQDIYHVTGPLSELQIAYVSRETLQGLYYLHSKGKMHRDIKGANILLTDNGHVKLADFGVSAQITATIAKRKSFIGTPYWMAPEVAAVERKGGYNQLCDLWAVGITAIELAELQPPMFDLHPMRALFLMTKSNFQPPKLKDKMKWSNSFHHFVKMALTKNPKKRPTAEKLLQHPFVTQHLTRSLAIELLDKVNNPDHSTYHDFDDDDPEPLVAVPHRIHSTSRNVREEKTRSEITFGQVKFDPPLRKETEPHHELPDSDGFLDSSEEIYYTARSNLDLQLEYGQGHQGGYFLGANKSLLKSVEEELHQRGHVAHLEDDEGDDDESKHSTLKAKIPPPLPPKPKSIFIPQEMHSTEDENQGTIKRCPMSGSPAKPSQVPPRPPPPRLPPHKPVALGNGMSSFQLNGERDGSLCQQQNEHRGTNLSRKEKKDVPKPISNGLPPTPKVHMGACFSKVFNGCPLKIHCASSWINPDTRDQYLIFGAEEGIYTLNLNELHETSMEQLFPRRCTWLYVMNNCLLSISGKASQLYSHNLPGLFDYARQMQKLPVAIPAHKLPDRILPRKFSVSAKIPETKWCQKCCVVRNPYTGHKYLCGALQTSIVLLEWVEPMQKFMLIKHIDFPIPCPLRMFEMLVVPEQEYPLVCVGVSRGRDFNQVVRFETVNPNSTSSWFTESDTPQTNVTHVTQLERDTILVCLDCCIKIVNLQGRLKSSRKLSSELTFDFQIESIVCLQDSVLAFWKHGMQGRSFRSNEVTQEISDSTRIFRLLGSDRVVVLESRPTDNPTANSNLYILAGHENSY
Procedure, shortened: as §1

MKK2 = MKK2 (Homo sapiens, UniProt P36507); settings: MKK2, 1 µM inhibitor; read-out: Residual activity, %
Procedure, shortened: as §1

OSR1 = OSR1 (Homo sapiens, UniProt O95747); settings: OSR1, 1 µM inhibitor; read-out: Residual activity, %
Procedure, shortened: as §1

PDK1 = target: T2, PDK1 (Homo sapiens, UniProt O15530); settings: PDK1, 1 µM inhibitor; read-out: Residual activity, %
T2 sequence (O15530 1-556): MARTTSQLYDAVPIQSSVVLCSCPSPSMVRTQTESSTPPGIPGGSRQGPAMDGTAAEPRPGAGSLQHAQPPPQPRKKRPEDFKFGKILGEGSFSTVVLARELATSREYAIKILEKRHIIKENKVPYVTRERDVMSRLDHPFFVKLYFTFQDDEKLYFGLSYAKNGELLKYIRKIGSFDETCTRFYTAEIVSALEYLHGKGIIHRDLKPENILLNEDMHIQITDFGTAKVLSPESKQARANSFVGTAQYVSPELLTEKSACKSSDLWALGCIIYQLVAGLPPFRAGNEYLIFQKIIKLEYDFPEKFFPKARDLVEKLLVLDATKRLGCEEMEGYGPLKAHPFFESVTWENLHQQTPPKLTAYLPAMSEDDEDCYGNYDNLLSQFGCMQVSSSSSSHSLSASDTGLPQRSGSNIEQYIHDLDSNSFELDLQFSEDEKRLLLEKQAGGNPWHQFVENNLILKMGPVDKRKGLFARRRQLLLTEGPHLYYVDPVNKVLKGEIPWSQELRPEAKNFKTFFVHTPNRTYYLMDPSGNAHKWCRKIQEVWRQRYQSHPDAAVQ
Procedure, shortened: as §1

STK33 = STK33 (Homo sapiens, UniProt Q9BYT3); settings: STK33, 1 µM inhibitor; read-out: Residual activity, %
Procedure, shortened: as §1

TLK1 = target: T3, TLK1 (Homo sapiens, UniProt Q9UKI8); settings: TLK1, 1 µM inhibitor; read-out: Residual activity, %
T3 sequence (Q9UKI8 1-766): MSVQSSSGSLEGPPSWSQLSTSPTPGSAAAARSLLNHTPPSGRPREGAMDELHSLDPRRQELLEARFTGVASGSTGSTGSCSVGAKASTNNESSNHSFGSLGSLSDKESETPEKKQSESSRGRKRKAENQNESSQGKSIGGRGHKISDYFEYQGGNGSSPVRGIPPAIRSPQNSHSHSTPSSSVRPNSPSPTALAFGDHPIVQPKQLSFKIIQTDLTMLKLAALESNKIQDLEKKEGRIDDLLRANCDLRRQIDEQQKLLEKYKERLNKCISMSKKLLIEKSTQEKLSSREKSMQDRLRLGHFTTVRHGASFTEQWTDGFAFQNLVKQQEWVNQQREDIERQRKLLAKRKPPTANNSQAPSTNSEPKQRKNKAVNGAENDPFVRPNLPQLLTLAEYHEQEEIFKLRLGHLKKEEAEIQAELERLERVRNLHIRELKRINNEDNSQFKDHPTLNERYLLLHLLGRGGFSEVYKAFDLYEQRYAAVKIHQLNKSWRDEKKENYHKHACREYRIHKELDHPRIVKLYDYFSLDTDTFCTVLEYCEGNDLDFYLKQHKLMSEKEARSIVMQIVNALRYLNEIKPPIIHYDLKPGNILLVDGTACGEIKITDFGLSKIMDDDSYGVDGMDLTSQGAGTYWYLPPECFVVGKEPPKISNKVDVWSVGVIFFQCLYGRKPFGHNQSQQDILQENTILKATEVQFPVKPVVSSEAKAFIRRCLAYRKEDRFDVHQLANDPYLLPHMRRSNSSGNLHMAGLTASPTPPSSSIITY
Procedure, shortened: as §1

YES1 = YES1 (Homo sapiens, UniProt P07947); settings: YES1, 1 µM inhibitor; read-out: Residual activity, %
Procedure, shortened: as §1

CK2, sequence (P68400 whole entry): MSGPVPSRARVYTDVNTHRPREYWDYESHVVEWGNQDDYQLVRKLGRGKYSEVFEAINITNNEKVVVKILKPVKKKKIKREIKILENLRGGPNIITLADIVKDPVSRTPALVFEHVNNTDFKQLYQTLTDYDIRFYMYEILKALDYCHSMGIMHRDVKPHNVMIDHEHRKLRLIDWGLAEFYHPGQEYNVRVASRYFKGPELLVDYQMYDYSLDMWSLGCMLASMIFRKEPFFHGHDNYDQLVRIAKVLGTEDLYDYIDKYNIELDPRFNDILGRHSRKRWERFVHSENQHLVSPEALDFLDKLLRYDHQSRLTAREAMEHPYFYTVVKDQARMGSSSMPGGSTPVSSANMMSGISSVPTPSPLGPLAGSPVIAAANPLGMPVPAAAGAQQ
YES1, sequence (P07947 whole entry): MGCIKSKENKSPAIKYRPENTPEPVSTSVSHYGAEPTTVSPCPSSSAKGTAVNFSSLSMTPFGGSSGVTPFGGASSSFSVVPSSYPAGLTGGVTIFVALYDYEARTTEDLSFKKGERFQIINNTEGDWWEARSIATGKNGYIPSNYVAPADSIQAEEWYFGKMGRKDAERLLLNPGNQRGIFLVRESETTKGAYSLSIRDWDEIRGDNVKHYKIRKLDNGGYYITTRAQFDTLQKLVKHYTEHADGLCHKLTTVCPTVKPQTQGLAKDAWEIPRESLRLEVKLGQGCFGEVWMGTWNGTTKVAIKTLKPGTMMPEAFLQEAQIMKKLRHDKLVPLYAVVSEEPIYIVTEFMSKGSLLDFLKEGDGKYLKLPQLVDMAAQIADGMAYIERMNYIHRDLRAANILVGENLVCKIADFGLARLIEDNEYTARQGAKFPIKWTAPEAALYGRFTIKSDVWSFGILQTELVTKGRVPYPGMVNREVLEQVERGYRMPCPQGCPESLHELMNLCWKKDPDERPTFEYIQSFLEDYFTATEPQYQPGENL
JNK1, sequence (P45983 whole entry): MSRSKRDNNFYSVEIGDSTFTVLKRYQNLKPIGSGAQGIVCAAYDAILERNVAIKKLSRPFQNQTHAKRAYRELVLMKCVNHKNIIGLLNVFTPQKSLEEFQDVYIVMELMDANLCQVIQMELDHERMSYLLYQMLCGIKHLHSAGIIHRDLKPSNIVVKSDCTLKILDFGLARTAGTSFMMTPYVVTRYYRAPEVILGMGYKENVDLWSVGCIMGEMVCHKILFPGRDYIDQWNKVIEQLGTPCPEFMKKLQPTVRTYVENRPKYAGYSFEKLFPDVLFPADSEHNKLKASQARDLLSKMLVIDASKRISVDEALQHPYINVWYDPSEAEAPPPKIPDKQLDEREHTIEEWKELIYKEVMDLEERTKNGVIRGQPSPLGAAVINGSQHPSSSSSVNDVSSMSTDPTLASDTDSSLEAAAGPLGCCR
MKK2, sequence (P36507 whole entry): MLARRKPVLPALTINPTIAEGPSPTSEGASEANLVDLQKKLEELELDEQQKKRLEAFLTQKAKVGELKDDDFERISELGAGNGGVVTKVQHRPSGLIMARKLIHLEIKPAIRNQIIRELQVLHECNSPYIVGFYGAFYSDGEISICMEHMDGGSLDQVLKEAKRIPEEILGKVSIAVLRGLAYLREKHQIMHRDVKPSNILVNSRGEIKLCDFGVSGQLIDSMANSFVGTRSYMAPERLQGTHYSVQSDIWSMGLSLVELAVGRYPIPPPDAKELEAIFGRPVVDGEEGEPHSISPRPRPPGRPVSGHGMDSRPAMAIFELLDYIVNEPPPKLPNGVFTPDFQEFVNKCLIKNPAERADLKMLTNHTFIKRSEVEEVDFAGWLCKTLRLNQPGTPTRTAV
OSR1, sequence (O95747 whole entry): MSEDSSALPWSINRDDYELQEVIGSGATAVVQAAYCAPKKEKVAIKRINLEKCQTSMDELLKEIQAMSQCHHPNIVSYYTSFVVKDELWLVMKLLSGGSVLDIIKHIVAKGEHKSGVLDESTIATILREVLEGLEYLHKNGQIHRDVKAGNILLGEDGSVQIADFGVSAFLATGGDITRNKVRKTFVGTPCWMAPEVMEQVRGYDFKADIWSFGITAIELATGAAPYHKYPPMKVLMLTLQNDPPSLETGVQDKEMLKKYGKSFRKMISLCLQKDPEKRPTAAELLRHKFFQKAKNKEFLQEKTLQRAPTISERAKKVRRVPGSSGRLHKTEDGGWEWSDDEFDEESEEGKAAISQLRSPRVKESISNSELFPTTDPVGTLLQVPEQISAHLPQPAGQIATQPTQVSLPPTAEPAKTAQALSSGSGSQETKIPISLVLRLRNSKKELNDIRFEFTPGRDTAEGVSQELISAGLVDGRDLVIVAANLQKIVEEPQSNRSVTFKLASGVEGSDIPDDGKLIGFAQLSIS
STK33, sequence (Q9BYT3 whole entry): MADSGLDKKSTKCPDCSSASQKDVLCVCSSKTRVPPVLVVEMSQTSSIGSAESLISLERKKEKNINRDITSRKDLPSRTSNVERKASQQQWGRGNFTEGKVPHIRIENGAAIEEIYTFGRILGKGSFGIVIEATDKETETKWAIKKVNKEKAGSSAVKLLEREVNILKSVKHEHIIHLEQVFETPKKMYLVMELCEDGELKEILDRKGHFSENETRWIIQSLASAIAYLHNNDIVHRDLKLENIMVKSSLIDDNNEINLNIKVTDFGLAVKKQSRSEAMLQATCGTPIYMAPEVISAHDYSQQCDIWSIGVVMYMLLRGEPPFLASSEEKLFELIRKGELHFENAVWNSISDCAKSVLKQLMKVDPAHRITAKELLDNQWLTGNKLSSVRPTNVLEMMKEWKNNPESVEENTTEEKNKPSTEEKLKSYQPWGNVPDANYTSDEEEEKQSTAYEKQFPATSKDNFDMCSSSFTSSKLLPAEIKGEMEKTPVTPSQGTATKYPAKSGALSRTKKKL

N=C(N)NCCC[C@@H](NC(=O)CCCCCNC(=O)Cn1cnc2c(I)c(I)c(I)c(I)c21)C(=O)N[C@H](CCCNC(=N)N)C(=O)N[C@H](CCCNC(=N)N)C(=O)N[C@H](CCCNC(=N)N)C(=O)N[C@H](CCCNC(=N)N)C(=O)N[C@H](CCCNC(=N)N)C(=O)N[C@H](CCCCN)C(N)=O [ARC-3125, TIBI-CH2-C(=O)-Ahx-(D-Arg)6-D-Lys-NH2]
remaining activity at 1 µM (CK2): 30 ± 2% | remaining activity at 1 µM (JNK1): 82 ± 13% | remaining activity at 1 µM (MAP4K3): 17 ± 1% | remaining activity at 1 µM (MKK2): 68 ± 5% | remaining activity at 1 µM (OSR1): 73 ± 2% | remaining activity at 1 µM (PDK1): 123 ± 7% | remaining activity at 1 µM (STK33): 84 ± 20% | remaining activity at 1 µM (TLK1): 78 ± 1% | remaining activity at 1 µM (YES1): 104 ± 8%

N=C(N)NCCC[C@@H](NC(=O)CNC(=O)[C@@H](CCCNC(=N)N)NC(=O)[C@@H](CCCNC(=N)N)NC(=O)CCCCCCCNCc1nc2c(sc3cc(Br)cnc32)c(=O)[nH]1)C(=O)N[C@H](CCCCN)C(N)=O [Compound 1, BPTP-Aoc-(D-Arg)2-Gly-D-Arg-D-Lys-NH2]
remaining activity at 1 µM (CK2): 77 ± 9% | remaining activity at 1 µM (JNK1): 100 ± 13% | remaining activity at 1 µM (MAP4K3): 119 ± 1% | remaining activity at 1 µM (MKK2): 102 ± 5% | remaining activity at 1 µM (OSR1): 114 ± 7% | remaining activity at 1 µM (PDK1): 116 ± 3% | remaining activity at 1 µM (STK33): 110 ± 2% | remaining activity at 1 µM (TLK1): 118 ± 1% | remaining activity at 1 µM (YES1): 110%

N=C(N)NCCC[C@@H](NC(=O)CNC(=O)[C@@H](CCCNC(=N)N)NC(=O)[C@@H](CCCNC(=N)N)NC(=O)CCCCCCCNCc1nc2c(sc3ccc(Br)cc32)c(=O)[nH]1)C(=O)N[C@H](CCCCN)C(N)=O [Compound 2, BBTP-Aoc-(D-Arg)2-Gly-D-Arg-D-Lys-NH2]
remaining activity at 1 µM (CK2): 63 ± 12% | remaining activity at 1 µM (JNK1): 112 ± 2% | remaining activity at 1 µM (MAP4K3): 118 ± 3% | remaining activity at 1 µM (MKK2): 108 ± 11% | remaining activity at 1 µM (OSR1): 114 ± 4% | remaining activity at 1 µM (PDK1): 121 ± 7% | remaining activity at 1 µM (STK33): 106 ± 3% | remaining activity at 1 µM (TLK1): 122 ± 9% | remaining activity at 1 µM (YES1): 104 ± 12%

N=C(N)NCCC[C@@H](NC(=O)CCCCCNCc1nc2c(sc3cc(Br)cnc32)c(=O)[nH]1)C(=O)N[C@H](CCCNC(=N)N)C(=O)N[C@H](CCCNC(=N)N)C(=O)N[C@H](CCCNC(=N)N)C(=O)N[C@H](CCCNC(=N)N)C(=O)N[C@H](CCCNC(=N)N)C(=O)N[C@H](CCCCN)C(N)=O [ARC-3126, BPTP-Ahx-(D-Arg)6-D-Lys-NH2] (X3-[dR][dR][dR][dR][dR][dR][dK]-NH2)
remaining activity at 1 µM (CK2): 8 ± 3% | remaining activity at 1 µM (JNK1): 116 ± 4% | remaining activity at 1 µM (MAP4K3): 81 ± 7% | remaining activity at 1 µM (MKK2): 117 ± 14% | remaining activity at 1 µM (OSR1): 116 ± 12% | remaining activity at 1 µM (PDK1): 111 ± 13% | remaining activity at 1 µM (STK33): 107 ± 6% | remaining activity at 1 µM (TLK1): 91 ± 10% | remaining activity at 1 µM (YES1): 98 ± 12%

N=C(N)NCCC[C@@H](NC(=O)CNC(=O)[C@@H](CCCNC(=N)N)NC(=O)[C@@H](CCCNC(=N)N)NC(=O)Cn1cc(CNCc2nc3c(sc4ccc(Br)cc43)c(=O)[nH]2)nn1)C(=O)N[C@H](CCCCN)C(N)=O [Compound 3, BBTP-Amt-(D-Arg)2-Gly-D-Arg-D-Lys-NH2]
remaining activity at 1 µM (CK2): 57 ± 7% | remaining activity at 1 µM (JNK1): 115 ± 13% | remaining activity at 1 µM (MAP4K3): 105 ± 2% | remaining activity at 1 µM (MKK2): 96 ± 7% | remaining activity at 1 µM (OSR1): 107 ± 14% | remaining activity at 1 µM (PDK1): 118 ± 16% | remaining activity at 1 µM (STK33): 91% | remaining activity at 1 µM (TLK1): 109 ± 10% | remaining activity at 1 µM (YES1): 124 ± 1%
